# Read-outs that look alike come from different tables or passages of the source.
# Assays:
# Test in all cases: LacI/LacO array recruitment in cells
# LacI-CFP-sPom121 (human) [1] = biological target: LacI-CFP-sPom121 (human) (UniProt Q96HA1)
# LacI-CFP-sPom121 (human) [2] = biological target: LacI-CFP-sPom121 (human) (UniProt Q96HA1); remark: listed apart in the source
# LacI-CFP-Nup133 (human) = LacI-CFP-Nup133 (human) (UniProt Q8WUM0)
# LacI-CFP-Nup153 (human) = LacI-CFP-Nup153 (human) (UniProt P49790)
# LacI-CFP-Nup214 (human) [3] = biological target: LacI-CFP-Nup214 (human) (UniProt P35658)
# LacI-CFP-Nup214 (human), sequence (P35658 whole entry): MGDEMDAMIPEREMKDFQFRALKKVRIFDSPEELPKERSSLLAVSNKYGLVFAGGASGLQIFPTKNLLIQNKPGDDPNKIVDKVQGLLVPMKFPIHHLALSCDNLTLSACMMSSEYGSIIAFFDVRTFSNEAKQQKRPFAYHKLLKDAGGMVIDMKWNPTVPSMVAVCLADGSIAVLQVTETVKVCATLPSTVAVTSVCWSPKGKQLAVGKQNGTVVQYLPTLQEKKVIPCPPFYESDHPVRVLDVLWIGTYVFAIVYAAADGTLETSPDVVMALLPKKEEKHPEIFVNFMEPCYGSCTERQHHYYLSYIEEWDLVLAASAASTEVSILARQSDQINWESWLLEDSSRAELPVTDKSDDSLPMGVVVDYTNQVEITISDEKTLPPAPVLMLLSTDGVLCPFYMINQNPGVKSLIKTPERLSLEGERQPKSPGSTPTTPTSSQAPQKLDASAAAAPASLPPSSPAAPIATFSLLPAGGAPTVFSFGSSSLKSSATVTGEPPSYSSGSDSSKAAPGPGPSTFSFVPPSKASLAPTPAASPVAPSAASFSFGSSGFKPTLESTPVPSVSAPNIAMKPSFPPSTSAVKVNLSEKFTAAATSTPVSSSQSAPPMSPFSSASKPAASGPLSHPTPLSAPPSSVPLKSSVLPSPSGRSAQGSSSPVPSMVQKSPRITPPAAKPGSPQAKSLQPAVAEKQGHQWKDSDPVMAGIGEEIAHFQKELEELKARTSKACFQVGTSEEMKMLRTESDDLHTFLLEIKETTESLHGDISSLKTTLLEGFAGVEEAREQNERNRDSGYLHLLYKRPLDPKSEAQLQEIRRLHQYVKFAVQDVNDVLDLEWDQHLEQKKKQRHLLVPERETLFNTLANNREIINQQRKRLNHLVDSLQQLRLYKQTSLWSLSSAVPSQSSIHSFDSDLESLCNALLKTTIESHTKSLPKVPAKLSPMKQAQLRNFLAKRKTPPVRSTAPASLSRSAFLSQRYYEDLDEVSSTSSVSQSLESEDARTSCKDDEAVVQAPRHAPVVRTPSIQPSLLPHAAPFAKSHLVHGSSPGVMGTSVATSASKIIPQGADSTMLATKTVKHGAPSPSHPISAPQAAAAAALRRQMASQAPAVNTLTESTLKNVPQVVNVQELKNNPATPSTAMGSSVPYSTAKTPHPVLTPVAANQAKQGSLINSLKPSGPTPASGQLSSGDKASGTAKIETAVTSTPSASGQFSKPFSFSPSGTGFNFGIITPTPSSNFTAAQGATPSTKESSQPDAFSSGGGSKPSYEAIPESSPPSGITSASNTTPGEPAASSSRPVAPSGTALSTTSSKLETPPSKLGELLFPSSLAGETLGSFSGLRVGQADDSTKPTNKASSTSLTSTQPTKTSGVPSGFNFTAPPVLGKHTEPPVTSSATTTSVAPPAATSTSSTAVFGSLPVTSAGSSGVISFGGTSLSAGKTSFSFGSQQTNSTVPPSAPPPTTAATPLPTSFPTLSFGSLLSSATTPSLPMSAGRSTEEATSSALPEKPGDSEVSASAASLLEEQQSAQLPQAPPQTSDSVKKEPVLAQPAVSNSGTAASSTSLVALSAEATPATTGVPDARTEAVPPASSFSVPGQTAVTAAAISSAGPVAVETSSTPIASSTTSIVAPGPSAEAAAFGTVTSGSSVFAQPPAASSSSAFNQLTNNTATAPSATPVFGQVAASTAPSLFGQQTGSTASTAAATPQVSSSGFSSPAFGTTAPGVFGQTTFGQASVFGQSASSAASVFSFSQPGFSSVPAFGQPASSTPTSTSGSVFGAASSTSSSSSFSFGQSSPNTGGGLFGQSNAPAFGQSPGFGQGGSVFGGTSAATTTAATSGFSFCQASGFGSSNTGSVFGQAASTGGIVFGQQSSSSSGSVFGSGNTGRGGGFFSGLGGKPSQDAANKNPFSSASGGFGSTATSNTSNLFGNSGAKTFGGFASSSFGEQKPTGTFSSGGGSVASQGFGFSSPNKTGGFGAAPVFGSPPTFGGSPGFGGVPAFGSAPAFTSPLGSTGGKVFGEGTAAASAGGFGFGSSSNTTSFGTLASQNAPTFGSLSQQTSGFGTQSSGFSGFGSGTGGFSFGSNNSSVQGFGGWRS
# LacI-CFP-Nup58 (human) = LacI-CFP-Nup58 (human) (UniProt Q9BVL2)
# LacI-CFP-Nup58 (human), sequence (Q9BVL2 whole entry): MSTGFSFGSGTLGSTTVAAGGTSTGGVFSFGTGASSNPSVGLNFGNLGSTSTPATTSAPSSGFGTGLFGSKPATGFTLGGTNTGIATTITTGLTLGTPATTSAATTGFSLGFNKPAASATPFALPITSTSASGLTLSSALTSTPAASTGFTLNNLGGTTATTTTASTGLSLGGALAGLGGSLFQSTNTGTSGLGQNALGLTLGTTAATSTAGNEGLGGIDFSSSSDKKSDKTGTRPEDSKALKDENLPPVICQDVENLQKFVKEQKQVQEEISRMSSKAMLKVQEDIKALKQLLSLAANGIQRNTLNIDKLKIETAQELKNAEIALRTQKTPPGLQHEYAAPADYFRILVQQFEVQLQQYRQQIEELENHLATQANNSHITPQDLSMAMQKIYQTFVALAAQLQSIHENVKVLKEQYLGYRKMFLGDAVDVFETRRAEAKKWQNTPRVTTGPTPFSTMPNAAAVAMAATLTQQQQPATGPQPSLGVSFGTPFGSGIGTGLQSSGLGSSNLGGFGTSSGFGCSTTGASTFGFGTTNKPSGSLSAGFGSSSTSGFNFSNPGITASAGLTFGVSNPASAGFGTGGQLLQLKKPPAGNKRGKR
# LacI-CFP-mNup85 (mouse) = LacI-CFP-mNup85 (mouse) (UniProt Q8R480)
# LacI-CFP-Nup214 (human) [4] = biological target: LacI-CFP-Nup214 (human) (UniProt P35658); remark: listed apart in the source
# LacI-CFP-Nup107 (human) = LacI-CFP-Nup107 (human) (UniProt P57740)
# LacI-CFP-Nup50 (human) = LacI-CFP-Nup50 (human) (UniProt Q9UKX7)
# LacI-CFP-Nup98 (human) = LacI-CFP-Nup98 (human) (UniProt P52948)
# LacI-CFP-Nup53 (human) = LacI-CFP-Nup53 (human) (UniProt Q8NFH5)
# LacI-CFP-sPom121 (human), sequence (Q96HA1 whole entry): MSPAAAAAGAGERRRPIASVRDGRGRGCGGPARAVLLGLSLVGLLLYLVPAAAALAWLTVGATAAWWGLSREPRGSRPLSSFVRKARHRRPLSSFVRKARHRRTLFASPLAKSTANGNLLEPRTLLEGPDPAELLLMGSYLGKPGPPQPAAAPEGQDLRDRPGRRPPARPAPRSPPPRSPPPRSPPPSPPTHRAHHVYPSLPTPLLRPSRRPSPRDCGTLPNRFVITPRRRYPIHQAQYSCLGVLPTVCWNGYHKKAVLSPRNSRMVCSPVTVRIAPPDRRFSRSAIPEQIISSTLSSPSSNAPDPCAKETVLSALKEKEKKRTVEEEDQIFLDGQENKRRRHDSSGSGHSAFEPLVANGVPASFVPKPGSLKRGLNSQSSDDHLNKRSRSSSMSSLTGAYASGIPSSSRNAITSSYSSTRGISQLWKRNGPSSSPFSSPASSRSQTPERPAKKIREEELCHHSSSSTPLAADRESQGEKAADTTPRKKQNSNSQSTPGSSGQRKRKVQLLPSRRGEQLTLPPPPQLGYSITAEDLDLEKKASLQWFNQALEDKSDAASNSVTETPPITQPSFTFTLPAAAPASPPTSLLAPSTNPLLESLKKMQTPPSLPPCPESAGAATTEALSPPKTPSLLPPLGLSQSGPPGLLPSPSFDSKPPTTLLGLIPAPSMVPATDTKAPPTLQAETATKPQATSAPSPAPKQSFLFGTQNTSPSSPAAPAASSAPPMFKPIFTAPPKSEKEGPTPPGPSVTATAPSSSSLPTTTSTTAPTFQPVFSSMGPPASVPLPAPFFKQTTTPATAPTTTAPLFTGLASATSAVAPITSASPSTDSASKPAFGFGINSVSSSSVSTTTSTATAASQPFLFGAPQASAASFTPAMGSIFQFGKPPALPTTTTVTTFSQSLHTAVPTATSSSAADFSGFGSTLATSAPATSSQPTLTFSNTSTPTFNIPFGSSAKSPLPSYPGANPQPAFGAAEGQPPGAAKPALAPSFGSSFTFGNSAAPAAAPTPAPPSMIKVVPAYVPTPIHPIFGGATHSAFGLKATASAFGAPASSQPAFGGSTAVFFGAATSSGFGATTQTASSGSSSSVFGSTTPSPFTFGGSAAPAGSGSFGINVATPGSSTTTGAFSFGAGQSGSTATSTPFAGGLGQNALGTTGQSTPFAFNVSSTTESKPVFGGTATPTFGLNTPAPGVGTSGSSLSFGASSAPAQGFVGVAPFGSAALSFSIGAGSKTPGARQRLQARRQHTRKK
# LacI-CFP-Nup133 (human), sequence (Q8WUM0 whole entry): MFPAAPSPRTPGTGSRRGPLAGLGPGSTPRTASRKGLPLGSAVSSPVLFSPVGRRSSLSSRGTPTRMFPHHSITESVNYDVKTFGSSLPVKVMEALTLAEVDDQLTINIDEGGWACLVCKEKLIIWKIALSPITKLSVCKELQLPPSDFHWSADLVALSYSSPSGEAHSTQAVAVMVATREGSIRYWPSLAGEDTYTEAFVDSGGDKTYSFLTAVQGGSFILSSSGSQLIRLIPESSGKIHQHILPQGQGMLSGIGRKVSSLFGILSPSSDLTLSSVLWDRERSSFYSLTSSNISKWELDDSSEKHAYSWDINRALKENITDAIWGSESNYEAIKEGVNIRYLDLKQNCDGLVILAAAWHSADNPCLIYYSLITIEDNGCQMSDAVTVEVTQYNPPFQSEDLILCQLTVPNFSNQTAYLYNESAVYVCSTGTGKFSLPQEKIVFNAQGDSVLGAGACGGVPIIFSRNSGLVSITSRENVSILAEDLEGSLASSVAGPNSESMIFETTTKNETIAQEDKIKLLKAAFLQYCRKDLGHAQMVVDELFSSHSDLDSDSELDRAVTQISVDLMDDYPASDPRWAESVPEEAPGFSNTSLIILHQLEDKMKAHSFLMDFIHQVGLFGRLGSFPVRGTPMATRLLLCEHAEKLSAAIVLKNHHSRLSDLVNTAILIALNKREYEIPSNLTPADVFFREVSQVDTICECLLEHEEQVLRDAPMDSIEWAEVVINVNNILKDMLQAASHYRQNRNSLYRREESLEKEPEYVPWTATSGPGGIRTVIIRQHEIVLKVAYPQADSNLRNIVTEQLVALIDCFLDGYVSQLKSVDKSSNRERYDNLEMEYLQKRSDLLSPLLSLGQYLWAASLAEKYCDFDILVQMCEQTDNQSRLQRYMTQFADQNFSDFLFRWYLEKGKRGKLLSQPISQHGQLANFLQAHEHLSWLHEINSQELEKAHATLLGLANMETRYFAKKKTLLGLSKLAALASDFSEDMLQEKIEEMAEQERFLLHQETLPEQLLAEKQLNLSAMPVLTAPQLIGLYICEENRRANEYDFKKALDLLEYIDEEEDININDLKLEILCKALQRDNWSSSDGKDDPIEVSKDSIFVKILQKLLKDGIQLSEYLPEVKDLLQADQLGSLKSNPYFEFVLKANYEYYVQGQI
substance,measurement,setting,value
Nup53 (endogenous) (from UniProt Q8NFH5 1-326) (natural protein),percent of transfected cells showing colocalization,LacI-CFP-sPom121 (human) [1],2%
Nup85 (endogenous) (from UniProt Q9BW27 1-656) (natural protein),percent of transfected cells showing colocalization,LacI-CFP-sPom121 (human) [1],7%
Nup93 (endogenous) (from UniProt Q8N1F7 1-819) (natural protein),percent of transfected cells showing colocalization,LacI-CFP-sPom121 (human) [1],68%
same,percent of transfected cells showing colocalization,LacI-CFP-sPom121 (human) [2],71%
"Nup214 (endogenous), P35658 1-2090 (natural protein)",percent of transfected cells showing colocalization,LacI-CFP-Nup133 (human),23%
Nup62 (endogenous) (from UniProt P37198 1-522) (natural protein),percent of transfected cells showing colocalization,LacI-CFP-sPom121 (human) [1],89%
"Nup214 (endogenous), P35658 1-2090 (natural protein; other documents disagree on this pair)",percent of transfected cells showing colocalization,LacI-CFP-Nup153 (human),6%
Nup133 (endogenous) (from UniProt Q8WUM0 1-1156) (natural protein),percent of transfected cells showing colocalization,LacI-CFP-sPom121 (human) [1],8%
ELYS (endogenous) (from UniProt Q8WYP5 1-2266) (natural protein),percent of transfected cells showing colocalization,LacI-CFP-sPom121 (human) [1],14%
"ELYS (endogenous), Q8WYP5 1-2266",percent of transfected cells showing colocalization,LacI-CFP-Nup214 (human) [3],45%
same,percent of transfected cells showing colocalization,LacI-CFP-Nup58 (human),13%
same,percent of transfected cells showing colocalization,LacI-CFP-mNup85 (mouse),9%
same,percent of transfected cells showing colocalization,LacI-CFP-Nup153 (human),65%
same,percent of transfected cells showing colocalization,LacI-CFP-Nup214 (human) [4],40%
same,percent of transfected cells showing colocalization,LacI-CFP-Nup107 (human),72%
same,percent of transfected cells showing colocalization,LacI-CFP-Nup133 (human),62%
same,percent of transfected cells showing colocalization,LacI-CFP-Nup50 (human),37%
same,percent of transfected cells showing colocalization,LacI-CFP-Nup98 (human),16%
same,percent of transfected cells showing colocalization,LacI-CFP-Nup53 (human),34%
Nup98 (endogenous) (from UniProt P52948 1-880) (natural protein),percent of transfected cells showing colocalization,LacI-CFP-sPom121 (human) [1],72%
same,percent of transfected cells showing colocalization,LacI-CFP-sPom121 (human) [2],74%

# From article PMC4615246
